US20020055615A1
Ends that are not written are not given here.

Tests used:
[1] = biological target: AM receptor (AM-R) on human tumor cell lines (human); experiment: cell-based or functional assay
[2] = biological target: AM receptor (AM-R) on human tumor cell lines (human); experiment: receptor binding on MCF-7 cells
[3] = biological target: AM receptor (AM-R) on human tumor cell lines (human); experiment: displacement of 125I-AM from MCF-7 cells by unlabelled AM
[4] = biological target: AM receptor (AM-R) on human tumor cell lines (human); experiment: 125I-AM (0.2 nM per 5×10^5 cells) binding to NCI-H1264 cells

B1: adrenomedullin (AM) (peptide, UniProt P35318 95-146, looked up)
peptide: YRQSMNNFQGLRSFGCRFGTCTVQKLAHQIYQFTDKDKDNVAPRSKISPQGY-NH2
modifications: ends and bridges not checked; also: 125I-labelled as tracer in receptor assays
Q: How did the increase in cellular cAMP (ED50) [1] turn out when B1 was run?
A: The increase in cellular cAMP (ED50) was 5 nM.

Q: And the maximum elevation of cellular cAMP (fold of control) [1]?
A: Its maximum elevation of cellular cAMP (fold of control) is 3.

Q: And the Kd [2]?
A: The Kd was 2 nM.

Q: What about the IC50 [3] of the same binder?
A: Its IC50 is 10 nM.

Q: What about the radioactivity bound (cpm) [4] of the same binder?
A: Its radioactivity bound (cpm) is 2260 cpm.
